Measured values from patent US5603943A, “Nasally administrable compositions” (Dott Research Laboratory, priority 1994, dated 1997).
“And” between values parts separate entries of the source, which are not always exact repeats. Equal values may be shown once. Ends that are not written are not given here.

Tests used:
[1] = relative, among calcitonins; cited from earlier work
[2] = system: blood sugar; test: Average fall of the blood sugar after nasal or subcutaneous insulin (Test Example 1); assay type: in vivo, male New Zealand rabbits
Experimental: A nasally administrable composition in powdery form was prepared by formulating insulin as a physiologically active peptide at the rate of 2.4 mg/rabbit (5 insulin unit (IU)/rabbit) with hydroxyapatite as a carrier having a mean particle size ranging from 40 to 45 μm.
The resulting composition was nasally administered once to six male New Zealand rabbits.
The average fall of the blood sugar was measured and represented in percentage (%) at 0, 15, 30, 60, 120 and 180 minutes after administration.
For comparison, 2 (IU)/rabbit of insulin was administered subcutaneously to six male New Zealand rabbits and the average fall of the blood sugar was measured and represented in percentage (%) at 0, 60, 120, 240 and 360 minutes after administration.

[3] = Nasal absorption, clinical effect and irritation (general statement); assay type: in vivo; conditions: powder in specific carrier, nasal route
[4] = Somatropin blood concentration, nasal powder with hydroxyapatite or calcium carbonate (Test Example 10); assay type: in vivo, healthy male adults (human); conditions: for Concentration of somatropin in the blood: nasal 6.825 somatropin unit/25 mg
Experimental: The blood (2.5 ml) was collected from each of the tested adults prior to administration and then at 5, 10, 15, 20, 30, 45, 60, 90, 120 and 150 minutes after administration.

[5] = Somatropin blood concentration, nasal powder with calcium lactate or calcium carbonate (Test Example 11); assay type: in vivo, healthy male adults (human)
Experimental: The blood (2.5 ml) was collected from each of the tested adults prior to administration and then at 5, 10, 15, 20, 30, 45, 60, 90, 120, 150 and 180 minutes after administration.

In the case of “human calcitonin: naturally occurring calcitonin extracted from the origin and commercially available”, the stability [1] is listed as “higher than salmon calcitonin”.

For “insulin: peptide hormone formulated with hydroxyapatite for nasal administration; also given subcutaneously as comparison”, the “Blood sugar, percent of initial value” ([2]; S.C. comparison, 2 IU/rabbit, 0 min) was 100%, the “Blood sugar, percent of initial value” ([2]; S.C. comparison, 2 IU/rabbit, 60 min) was 57% and the “Blood sugar, percent of initial value” ([2]; S.C. comparison, 2 IU/rabbit, 120 min) was 56%. For the same substance, the “Blood sugar, percent of initial value” ([2]; S.C. comparison, 2 IU/rabbit, 240 min) was 84%, the “Blood sugar, percent of initial value” ([2]; S.C. comparison, 2 IU/rabbit, 360 min) was 94% and the “absorption through nasal route” value ([2]; hydroxyapatite, rabbits) was “high extent of absorption”. For the same substance, the “Blood sugar, percent of initial value” ([2]; nasal, 5 IU/rabbit, hydroxyapatite, 0 min) was 100%, the “Blood sugar, percent of initial value” ([2]; nasal, 5 IU/rabbit, hydroxyapatite, 15 min) was 105% and the “Blood sugar, percent of initial value” ([2]; nasal, 5 IU/rabbit, hydroxyapatite, 30 min) was 66%. For the same substance, the “Blood sugar, percent of initial value” ([2]; nasal, 5 IU/rabbit, hydroxyapatite, 60 min) was 67%, the “Blood sugar, percent of initial value” ([2]; nasal, 5 IU/rabbit, hydroxyapatite, 120 min) was 84% and the “Blood sugar, percent of initial value” ([2]; nasal, 5 IU/rabbit, hydroxyapatite, 180 min) was 96%. For the same substance, the “absorption into the body” value [3] was “well absorbed into the body” and the clinical effects [3] was “high clinical effects”.

For “somatropin: somatropin (growth hormone; recombinant type--NOVO), 150 mg per composition (1,000 mg) with carrier”, the “Concentration of somatropin in the blood” value ([4]; 0 min (predose), calcium carbonate, individual cases No. 27-28 in order) was 0.28 ng/mL and 0.24 ng/mL, the “Concentration of somatropin in the blood” value ([4]; 0 min (predose), hydroxyapatite, individual cases No. 25-26 in order) was 0.49 ng/mL and 0.76 ng/mL and the “Concentration of somatropin in the blood” value ([4]; 5 min, calcium carbonate, individual cases No. 27-28 in order) was 0.96 ng/mL and 0.55 ng/mL. The “Concentration of somatropin in the blood” value ([4]; 5 min, hydroxyapatite, individual cases No. 25-26 in order) was 2.44 ng/mL and 3.18 ng/mL, the “Concentration of somatropin in the blood” value ([4]; 10 min, calcium carbonate, individual cases No. 27-28 in order) was 2.55 ng/mL and 1.08 ng/mL and the “Concentration of somatropin in the blood” value ([4]; 10 min, hydroxyapatite, individual cases No. 25-26 in order) was 3.59 ng/mL and 2.27 ng/mL. The “Concentration of somatropin in the blood” value ([4]; 15 min, calcium carbonate, individual cases No. 27-28 in order) was 2.84 ng/mL and 1.41 ng/mL, the “Concentration of somatropin in the blood” value ([4]; 15 min, hydroxyapatite, individual cases No. 25-26 in order) was 4.66 ng/mL and 2.00 ng/mL and the “Concentration of somatropin in the blood” value ([4]; 20 min, calcium carbonate, individual cases No. 27-28 in order) was 3.02 ng/mL and 1.78 ng/mL. For the same substance, the “Concentration of somatropin in the blood” value ([4]; 20 min, hydroxyapatite, individual cases No. 25-26 in order) was 6.25 ng/mL and 1.86 ng/mL, the “Concentration of somatropin in the blood” value ([4]; 30 min, calcium carbonate, individual cases No. 27-28 in order) was 4.11 ng/mL and 1.91 ng/mL and the “Concentration of somatropin in the blood” value ([4]; 30 min, hydroxyapatite, individual cases No. 25-26 in order) was 5.21 ng/mL and 1.67 ng/mL. The “Concentration of somatropin in the blood” value ([4]; 45 min, calcium carbonate, individual cases No. 27-28 in order) was 8.93 ng/mL and 1.99 ng/mL, the “Concentration of somatropin in the blood” value ([4]; 45 min, hydroxyapatite, individual cases No. 25-26 in order) was 4.16 ng/mL and 1.80 ng/mL and the “Concentration of somatropin in the blood” value ([4]; 60 min, calcium carbonate, individual cases No. 27-28 in order) was 13.10 ng/mL and 2.11 ng/mL. The “Concentration of somatropin in the blood” value ([4]; 60 min, hydroxyapatite, individual cases No. 25-26 in order) was 2.93 ng/mL and 1.61 ng/mL, the “Concentration of somatropin in the blood” value ([4]; 90 min, calcium carbonate, individual cases No. 27-28 in order) was 14.60 ng/mL and 1.27 ng/mL and the “Concentration of somatropin in the blood” value ([4]; 90 min, hydroxyapatite, individual cases No. 25-26 in order) was 1.45 ng/mL and 1.41 ng/mL. The “Concentration of somatropin in the blood” value ([4]; 120 min, calcium carbonate, individual cases No. 27-28 in order) was 5.65 ng/mL and 0.92 ng/mL, the “Concentration of somatropin in the blood” value ([4]; 120 min, hydroxyapatite, individual cases No. 25-26 in order) was 0.76 ng/mL and 1.16 ng/mL and the “Concentration of somatropin in the blood” value ([4]; 150 min, calcium carbonate, individual cases No. 27-28 in order) was 2.97 ng/mL and 0.80 ng/mL. The “Concentration of somatropin in the blood” value ([4]; 150 min, hydroxyapatite, individual cases No. 25-26 in order) was 0.91 ng/mL, the “absorption through nasal route” value ([4]; hydroxyapatite and calcium carbonate) was “high extent of absorption” and the “absorption into the body” value [3] was “well absorbed into the body”. For the same substance, the clinical effects [3] was “high clinical effects”, the “Concentration of somatropin in the blood” value ([5]; 0 min (predose), nasal 6.825 somatropin unit/25 mg, calcium carbonate, individual cases No. 31-32 in order) was 0.15 ng/mL and 0.69 ng/mL and the “Concentration of somatropin in the blood” value ([5]; 0 min (predose), nasal 6,825 (so in the source) somatropin unit/25 mg, calcium lactate, individual cases No. 29-30 in order) was 1.15 ng/mL and 0.16 ng/mL. The “Concentration of somatropin in the blood” value ([5]; 5 min, nasal 6.825 somatropin unit/25 mg, calcium carbonate, individual cases No. 31-32 in order) was 0.46 ng/mL and 6.15 ng/mL, the “Concentration of somatropin in the blood” value ([5]; 5 min, nasal, 25 mg, calcium lactate, individual cases No. 29-30 in order) was 2.56 ng/mL and 0.30 ng/mL and the “Concentration of somatropin in the blood” value ([5]; 10 min, nasal 6.825 somatropin unit/25 mg, calcium carbonate, individual cases No. 31-32 in order) was 0.81 ng/mL and 2.81 ng/mL. For the same substance, the “Concentration of somatropin in the blood” value ([5]; 10 min, nasal, 25 mg, calcium lactate, individual cases No. 29-30 in order) was 4.29 ng/mL and 0.37 ng/mL, the “Concentration of somatropin in the blood” value ([5]; 15 min, nasal 6.825 somatropin unit/25 mg, calcium carbonate, individual cases No. 31-32 in order) was 1.13 ng/mL and 2.49 ng/mL and the “Concentration of somatropin in the blood” value ([5]; 15 min, nasal, 25 mg, calcium lactate, individual cases No. 29-30 in order) was 5.11 ng/mL and 0.65 ng/mL. For the same substance, the “Concentration of somatropin in the blood” value ([5]; 20 min, nasal 6.825 somatropin unit/25 mg, calcium carbonate, individual cases No. 31-32 in order) was 1.30 ng/mL and 2.20 ng/mL, the “Concentration of somatropin in the blood” value ([5]; 20 min, nasal, 25 mg, calcium lactate, individual cases No. 29-30 in order) was 5.87 ng/mL and 0.72 ng/mL and the “Concentration of somatropin in the blood” value ([5]; 30 min, nasal 6.825 somatropin unit/25 mg, calcium carbonate, individual cases No. 31-32 in order) was 1.64 ng/mL and 2.12 ng/mL. The “Concentration of somatropin in the blood” value ([5]; 30 min, nasal, 25 mg, calcium lactate, individual cases No. 29-30 in order) was 7.70 ng/mL and 0.79 ng/mL, the “Concentration of somatropin in the blood” value ([5]; 45 min, nasal 6.825 somatropin unit/25 mg, calcium carbonate, individual cases No. 31-32 in order) was 1.79 ng/mL and 1.67 ng/mL and the “Concentration of somatropin in the blood” value ([5]; 45 min, nasal, 25 mg, calcium lactate, individual cases No. 29-30 in order) was 5.99 ng/mL and 0.71 ng/mL. For the same substance, the “Concentration of somatropin in the blood” value ([5]; 60 min, nasal 6.825 somatropin unit/25 mg, calcium carbonate, individual cases No. 31-32 in order) was 1.47 ng/mL and 1.36 ng/mL, the “Concentration of somatropin in the blood” value ([5]; 60 min, nasal, 25 mg, calcium lactate, individual cases No. 29-30 in order) was 6.16 ng/mL and 0.62 ng/mL and the “Concentration of somatropin in the blood” value ([5]; 90 min, nasal 6.825 somatropin unit/25 mg, calcium carbonate, individual cases No. 31-32 in order) was 1.18 ng/mL and 1.02 ng/mL. For the same substance, the “Concentration of somatropin in the blood” value ([5]; 90 min, nasal, 25 mg, calcium lactate, individual cases No. 29-30 in order) was 3.39 ng/mL and 0.58 ng/mL, the “Concentration of somatropin in the blood” value ([5]; 120 min, nasal 6.825 somatropin unit/25 mg, calcium carbonate, individual cases No. 31-32 in order) was 0.79 ng/mL and 0.48 ng/mL and the “Concentration of somatropin in the blood” value ([5]; 120 min, nasal, 25 mg, calcium lactate, individual cases No. 29-30 in order) was 1.70 ng/mL and 0.32 ng/mL. The “Concentration of somatropin in the blood” value ([5]; 150 min, nasal 6.825 somatropin unit/25 mg, calcium carbonate, individual cases No. 31-32 in order) was 0.59 ng/mL and 0.37 ng/mL, the “Concentration of somatropin in the blood” value ([5]; 150 min, nasal, 25 mg, calcium lactate, individual cases No. 29-30 in order) was 0.24 ng/mL and the “Concentration of somatropin in the blood” value ([5]; 180 min, nasal 6.825 somatropin unit/25 mg, calcium carbonate, individual cases No. 31-32 in order) was 1.67 ng/mL and 0.48 ng/mL. For the same substance, the “Concentration of somatropin in the blood” value ([5]; 180 min, nasal, 25 mg, calcium lactate, individual cases No. 29-30 in order) was 0.45 ng/mL and 1.02 ng/mL and the “absorption through nasal route” value ([5]; calcium lactate and calcium carbonate) was “high extent of absorption”.

In the case of “eel calcitonin: naturally occurring calcitonin extracted from the origin and commercially available (CSNLSTCVLGKLSQELHKLQTYPRTDVGAGTP; ends and bridges not checked; cysteine pairing not given here; UniProt P01262 1-32, looked up)”, the stability [1] is given as “higher in stability than human calcitonin”.
